Results from patent US20250057980.

Target: T1, Bxb1 integrase (Mycobacterium phage Bxb1?) (UniProt Q9B086)
T1 sequence: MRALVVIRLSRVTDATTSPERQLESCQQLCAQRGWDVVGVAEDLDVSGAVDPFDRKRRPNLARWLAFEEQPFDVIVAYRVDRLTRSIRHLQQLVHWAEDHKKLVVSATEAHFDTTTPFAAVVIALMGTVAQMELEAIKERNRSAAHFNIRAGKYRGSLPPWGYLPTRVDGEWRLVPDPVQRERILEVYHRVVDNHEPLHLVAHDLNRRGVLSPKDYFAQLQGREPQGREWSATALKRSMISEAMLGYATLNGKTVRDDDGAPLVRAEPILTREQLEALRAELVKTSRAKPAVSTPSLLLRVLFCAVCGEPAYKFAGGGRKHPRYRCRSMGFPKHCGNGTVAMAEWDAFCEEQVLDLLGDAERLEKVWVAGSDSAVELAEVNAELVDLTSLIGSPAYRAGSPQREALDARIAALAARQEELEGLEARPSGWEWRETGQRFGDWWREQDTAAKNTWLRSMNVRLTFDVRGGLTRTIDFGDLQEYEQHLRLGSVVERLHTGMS
Experiment: cell_activity
Details: in vivo mouse liver, 1E11 vg Bxb1 AdV, 1E12 vg AAV; about 7% at 3E10 vg

## AttP GT/GA dual site in Rosa26 of AttP mice with 38 bp GT AttB AAV donor
  activity (% integration): 11
